# From publication doi:10.1101/2020.05.20.106609 (bioRxiv, 2020)
# Target: SARS-CoV-2 spike protein (SARS-CoV-2 Wuhan-Hu-1 (QHD43416), UniProt P0DTC2, stabilised)
# Assay: ELISA
row,Binder,binding result
1,"MD17 (scFv, V domains shown) VH: EVQLLESGGGLVQPGGSLRLSCSASGFTFSTYVMNWVRQAPGKGLEHVSGISSDGGITYYADSVKGRFTISRDNSKNTLYLQMSSLRVEDTAVYYCVKDQDSSSWYDAFDIWGQGTMVTVSS VL: DIVMTQSPSSLSASVGDRVTITCRASQSISNYLNWYQQKLGKAPKLLTYAASRLQSGVPSRFSASGSGTEFTLTISSLQPEDFATYYCQQSYTTPLTFGGGTKLEIK",binds
2,"MD47 (scFv, V domains shown) V domain 1: QMQLVQSGGGLVQPGGSLRLSCAASGFTFSSYAMSWVRQAPGKGLEWVSAISSGGSTYYADSVKGRFTISRDNSKNTLYLQMNSLRAEDTAVYYCAKDLVTAPSYEAFDIWGQGTMITVSS V domain 2: NFMLTQPPSVSVAPGKTARITCGGNNIGSKSVHWYQQKPGQAPVLVIYYDSDRPSGIPERFSGSNSGNTATLTISRVEAGDEADYYCQVWDSSSHHHVVFGGGTKGTVL",binds
3,"MD62 (scFv, V domains shown) VH: EVQLVQSGGGLIQPGGSLRLSCAASGVTVSSNYMTWVRQAPGKGLEWVSLIYSGGSTYYADSVKGRFTISRDNSKNTLYLQMNSLRAEDTAVYYCARDLQYYGMDVWGQGTMVTVSS VL: AIRMTQSPSSVSASVGDRVTITCRASQDIGSWLGWYQQKPGKAPKLLIYAASSLAGGVPSRFSGSGSGTDFTLTISSLQPEDFATYYCQQANSFPLTFGGGTKLEIK",binds
4,"MD29 (scFv, V domains shown) VH: QMQLVQSGGGLVQPGGSLRLSCSASGFTFSTYVMNWVRQAPGKGPEHVSGISSDGGITYYADSVKGRFTISRDNSKNTLYLQMSSLRVEDTAVYYCVKDQDSSSWYDAFDIWGQGTMVTVSS VL: NIRLTQSPSSLSASVGDRVTITCRATQSISSYLNWYQQKPGKAPNLLIYAASSLQSGVPSRFSGSGSGTDFTLTISSLQPEDFATYYCHQTYTSPYTFGQGTKLEIK",binds
